In PMC12695944, “Geminin inhibits DNA replication licensing by sterically blocking CDT1-MCM2 interactions” (Nature Communications, 2025):
Changes are numbered by the printed parent chain.

Assays:
[1] = biological target: T1, CDT1^ΔN (N-terminally truncated CDT1^158-546) (human, UniProt Q9H211 158-546); assay: SPR
T1 chain: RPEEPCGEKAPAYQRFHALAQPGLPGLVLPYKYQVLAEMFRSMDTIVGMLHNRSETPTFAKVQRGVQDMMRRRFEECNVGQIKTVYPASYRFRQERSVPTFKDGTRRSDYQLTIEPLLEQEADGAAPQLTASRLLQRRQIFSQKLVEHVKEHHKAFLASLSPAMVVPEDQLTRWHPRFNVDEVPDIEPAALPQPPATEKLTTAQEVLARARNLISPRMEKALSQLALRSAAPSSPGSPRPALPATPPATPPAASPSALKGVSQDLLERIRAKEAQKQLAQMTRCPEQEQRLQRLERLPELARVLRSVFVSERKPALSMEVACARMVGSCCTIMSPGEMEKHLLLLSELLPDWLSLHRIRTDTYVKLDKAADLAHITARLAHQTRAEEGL

[2] = biological target: T2, full-length CDT1 (CDT1^FL), untagged, co-expressed with geminin (CG complex) (human, UniProt Q9H211 1-546); assay: SEC-MALS; co-expressed and co-purified CDT1^FL-geminin (CG) complex at >25× higher concentration than in the pre-RC assay; conditions: both partners purified
T2 construct: CDT1, human, UniProt Q9H211, residues 1-546; A separate GST-cleaved CDT1^FL was used only in pre-RC assays; also called CDT1 of the CG complex; source: E. coli BL21 (DE3), co-expressed with His-geminin, co-purified as described for geminin
T2 sequence (looked up): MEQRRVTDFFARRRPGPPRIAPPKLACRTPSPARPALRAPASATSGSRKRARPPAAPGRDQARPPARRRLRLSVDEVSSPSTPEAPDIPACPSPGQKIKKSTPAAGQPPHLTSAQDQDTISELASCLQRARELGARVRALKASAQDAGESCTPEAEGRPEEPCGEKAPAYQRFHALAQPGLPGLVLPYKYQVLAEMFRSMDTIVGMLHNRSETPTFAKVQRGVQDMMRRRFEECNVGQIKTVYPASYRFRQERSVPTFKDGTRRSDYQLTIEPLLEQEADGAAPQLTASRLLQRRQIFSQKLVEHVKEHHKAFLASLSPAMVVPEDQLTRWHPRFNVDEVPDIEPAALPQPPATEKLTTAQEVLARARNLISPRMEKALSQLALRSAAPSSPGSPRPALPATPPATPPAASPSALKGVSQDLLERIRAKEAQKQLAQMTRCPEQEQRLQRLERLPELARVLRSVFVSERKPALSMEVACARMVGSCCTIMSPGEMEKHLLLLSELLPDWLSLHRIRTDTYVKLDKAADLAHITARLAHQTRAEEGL

[3] = biological target: T3, CDT1^ΔN (N-terminally truncated CDT1^158-546) (human, UniProt Q9H211 158-546); assay: mass photometry; room temperature; proteins incubated at CDT1:geminin monomer ratios 0:1, 1:0, 1:2, 1:3, 2:4, 1:4 (1 part = 150 nM) in pre-RC buffer minus Triton X-100, diluted 1:10 in PBS on the instrument; MHD, CHD at 1:2; conditions: both partners purified
T3 construct: CDT1, human, UniProt Q9H211, residues 158-546 (lacks the unstructured N-terminus); Plasmid is in Supplementary Data 1; The His tag serves for capture on the NTA chip in the SPR with peptides; also called standard CDT1 construct; source: E. coli BL21 (DE3), purified (HisTrap Excel, POROS HS, Superdex 200); not shown: His6, N-terminal, kept
T3 sequence (looked up): T1 chain

[4] = biological target: T4, CDT1 middle helical domain (CDT1^MHD, residues 158–396) (human, UniProt Q9H211 158-396); assay: as above; conditions: both partners purified
T4 construct: CDT1, human, UniProt Q9H211, residues 158-396; also called CDT1^158-396; source: E. coli, purified as CDT1^ΔN with the POROS HS step omitted
T4 sequence (looked up): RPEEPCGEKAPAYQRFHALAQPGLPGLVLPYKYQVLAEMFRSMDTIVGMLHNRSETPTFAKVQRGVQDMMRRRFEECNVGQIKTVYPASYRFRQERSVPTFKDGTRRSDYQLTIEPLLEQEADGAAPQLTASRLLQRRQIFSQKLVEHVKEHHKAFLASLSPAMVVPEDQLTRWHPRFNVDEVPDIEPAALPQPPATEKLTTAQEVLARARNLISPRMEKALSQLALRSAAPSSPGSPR

[5] = biological target: T5, CDT1^4A (CDT1^ΔN with residues 327–330 mutated to alanines) (human, UniProt Q9H211 158-546, residues 327–330 mutated to alanines (CDT1^4A)); assay: as above; conditions: both partners purified
T5 construct: CDT1, human, UniProt Q9H211, residues 158-546 with residues 327-330 all alanine; R330 is; source: E. coli, purified as for the MHD and CHD
T5 sequence (looked up): T1 chain with Q170A, L171A, T172A, R173A

[6] = biological target: T6, CDT1^R330A (on a CDT1^ΔN background) (human, UniProt Q9H211 158-546, R330A); assay: as above; conditions: both partners purified
T6 construct: CDT1, human, UniProt Q9H211, residues 158-546 with R330A; source: E. coli, purified as for the MHD and CHD
T6 sequence (looked up): T1 chain with R173A

[7] = biological target: the molecule itself; assay: as above
[8] = biological target: T3, CDT1^ΔN (N-terminally truncated …); assay: SPR; single-cycle; CDT1^ΔN covalently immobilised on a CM5 chip (EDC/NHS); Gem^FL dimer injected, 7 injections, three-fold steps up to 750 nM; 25 °C; 10 mM HEPES, 500 mM NaCl, 50 µM EDTA, 1 mM TCEP-HCl, 0.05% Tween-20, pH 8.0; 1:1 kinetic model of analyte dimer:CDT1; conditions: both partners purified

koff [1]: 0.0019 s⁻¹
stoichiometry N [2]: 2 geminin monomers per CDT1
stoichiometry N [3]: 2 geminin monomers per CDT1
stoichiometry N [4]: 2 geminin monomers per CDT1^MHD
stoichiometry N [5]: 2 geminin monomers per CDT1
stoichiometry N [6]: 2 geminin monomers per CDT1
Kd [8]: 12 nM
B1: full-length geminin (Gem^FL) (natural protein, human, UniProt O75496 1-209, looked up)
chain: MNPSMKQKQEEIKENIKNSSVPRRTLKMIQPSASGSLVGRENELSAGLSKRKHRNDHLTSTTSSPGVIVPESSENKNLGGVTQESFDLMIKENPSSQYWKEVAEKRRKALYEALKENEKLHKEIEQKDNEIARLKKENKELAEVAEHVQYMAELIERLNGEPLDNFESLDNQEFDSEEETVEDSLVEDSEIGTCAEGTVSSSTDAKPCI
notes: geminin, human, UniProt O75496, full length; Dimer in solution; In the co-purification of the CG complex the His tag is still on geminin at the HisTrap step and is cleaved afterwards; Plasmid is in Supplementary Data 1; also called WT geminin; source: E. coli BL21 (DE3), purified (HisTrap Excel, POROS HQ, Superdex 200); also co-expressed with untagged CDT1 in E. coli BL21 (DE3) and purified in …
stoichiometry N [7]: 1.91 ± 0.09
